Our source for the protease stability score values is the NTF2 design screens of Basanta et al. (2020).

The nature of this data set: protease stability score; higher = more stable; yeast display proteolysis, trypsin and chymotrypsin.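 Also: relative to predicted unfolded state with 0 unfolded-like and 1 meaning tenfold more protease.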
The sequence “SEIDREAEELVHLLAEFVETGNEERWLELLDPHVRLDFDGVISHGREHYIEFWRRLKENLGIDKVSFRVRRRKTQGEKAHSDMETDINGQKYHMEVLVVVINGVVKHSEFHYN” came in with a protease stability score of 1.07.

On to “SEIDREHHELLTLLVHLWLTGDWKTFKKYFDPNVRLHQGDFDDHGWEALEETERKHGIEIKDLELHEFHVQGEKIIINLHVVIRQGDKTYRKDMRITYVVVNGRVTSIRMEVR”, for which the protease stability score is 0.877.

“SEIDRLSEELARLFLELVITGDFKTLSHLADPTVKSDINGVDLHGREELYRWVEEFYNELRVSWVLDSIEVQGEKAYVKGKLESRVDGQRHTDQYEIILIIVNGRFKEIIVKRR” displayed a protease stability score of 1.5.

The sequence “SEIEEDSRKASRDLMNSIRTGNEEVLKEMADPHVRTDINGREIHGMEKWLNELSEFLEKFKGAKIDLSLKDIRIQGEYIHIHMHVHLRFNGKSDNKDIEIIALKVDGRWLIQEWRIR” came in with a protease stability score of 0.834.

For the sequence “SEIEEEAKHVSELMVRWMETGDEKEIYKFADPHVRLEYNGREFHGRESILKHRREIIEKWGVTNIRVSPETFDVINGVVHVELILKVNGRNVIVHILIRKIDGRWRIDSESFI”, the protease stability score worked out at 1.5.

The sequence “SEIEEEIEQAYKLTKHHWETGDEKDIRRNADPHVRVYFNGREYHGWEVLHEVLRLMGAKHVEIHRYEIQGEYVHIDSEVRQGDKRFRMHVESYKVNGRWFIETVFIK” had a protease stability score of 0.749.

“SEIEEELSSDRRDFIRAVLTGDFERHIEQMDPNVKLIFNGKEFHGREEVHRSWEELIDRWGVDKFEYRIEDMEHFPGHLMIHGTLNYNGKRERVIIYAVKFNGRWRVERVEIK” had a protease stability score of 1.55.

As to “SEIEEESEEHLNLYMHAMHTGDWHTLERLADPNVRMDVNGQEHHGREEFVKVLVHMIEHLGIDHVRVKHLDLQGDKLHADTTEEVNGRRIHTILDVTKINGRWFITSLEIH”, the protease stability score worked out at 0.495.

The sequence “SEIEEFTRKLLEMFLEAFLTGDWKFLWELADPNVRLNVGDKHAHGMESSKHLLDEWLTEMRLRDMHVHSVHFQGEKRDNNGKEHRIYGDKVRLWDVHLHLVIVNGRLKEVNIEER” yielded a protease stability score of 1.31.

In turn, “SEIEEHIKHMAHEILHNMLTGDWRRFSELADPNVRITVQQGDKVREYHGWESWKLLLDELRLHRFEFKDMHVQGNYAHIIGRQVGEFDGVRQDRDIEIIHVVVNGRIKQVIVHVE” showed a protease stability score of 1.86.

For the sequence “SEIEELMKISLREFLHSSETGDEEHHNRYADPNVRLEIGDKTLIGWEALEHLLEHWKREAGIEKIELHIHVTRIHVQGEKLEFDGHLEVRQGDKVNHVKVTLVITKIDGKWVLHSVVFI”, the protease stability score was found to be 0.367.

“SEIEELVERAEKEHLRTLMTGDWRLFEHNLDPNTKLELDYDGRKIERHGRRHMSHYLKELFKSLGIKHMHLEDSHIQGDKLELHLHFHIGDKTRNVIIIVRKVNGQWIVETLIVHEH” came in with a protease stability score of 0.829.

Regarding “SEIEEQVEEAYRLILEMLHTGDEHTMHELIDPHVRHRIDGQTYHGREFLIKWLVKLREDWGVEKISVKLKFITIIGDFALVVVDIHINGVKLKNHTLATKVNGRWRDHTVNIEHI”, the protease stability score was 0.637.

For the sequence “SEIEERVYRVVETFWMALRTGDEETLDDLLDPNVKLDIDGKEFHGREKYKEFLELFKGVTVESVEFRDSKISGEKAIIHVHVTLRQGDKEEHKSTELVLYKINGRWIIEHVRLK”, the protease stability score was determined as 2.21.

“SEIEETTRQASEFNLHSFRTGDEKMVHELADPHVRTDFNGKRLHGRESLTKELDKLLKDLGVDHVRIEHVNIYNGRVDIIMRVEVGDKEWKITIIAIKIDGKWKLESIEME” showed a protease stability score of 0.132.

Regarding “SEIEHNLRLAEELLEKVTQTGNEELLHDLIDPNVRFYINGRDFVGREKNIKVFRSWGIDRVHFESEHIDIQGNKINFHGQINVNGKSMDTQIIAVKVNGRWLIKESWVD”, the protease stability score turned out to be 0.565.

In the case of “SEIEHVVKRAIKIFIEVLETGDWELMWRLLDPHVRIEVGNKEKHGRHTIEEMIRRVDHIHINERQIHDIEIQGDKVHLHIHLNVEERVGDKRLNFEFELHIIAEKVNGRWIVRSVTIK”, the protease stability score was 1.62.

For “SEIEKDAKDALKWFVDTTRTGDEDLWLRLLDPHVRVIIGDKEYHGREESEKLIRHLSDLFGVDKVEVILNLERIHIQGNKIDVKGKLEVRQGNYTDDREIEMVMIKVNGRWFIKYEVIK”, the protease stability score came out at 1.18.

“SEIEKESEKIWKIWFHNLETGNWREIARLFDPHARWRELVDGREVNIVGREEVVRLLSENSEHLRLDDFRETSVRVIGDFVRSDVEMVGTVDGQHERRRVEVIIVTINGRLHSITITHL” gave a protease stability score of 1.15.

Sequence “SEIEKLLIDWLEHMVRAHKTGDWQNLLNMLDPHTRLNINGQHNIGRDKLTHLIREEEDRFGVDNIELHLHLEDIDIQGEKVNMKVQRHVNVNGREYTDEVELIIVKINGRWLLESIHVH” came in with a protease stability score of 0.932.

Regarding “SEIEKMFHIALKLWVRTMKTGDFEDLLRLLDPNWRLEVNGRTHHGREELEHEIRELGIDQFHLHHIEHKEFLVQGEKITIDGRINGEFNGVQYNTRVIIIAKKINGRWVLHSEEIK”, the protease stability score came to 1.37.

In turn, “SEIERDAREFLRVLLEHLHTGDEDDLARLADPHVLIDIDGREIVGRELFREIWHEMGVNHTEYKDLDIQGNKLHIHINVNVNGKVRSLRIVVRKVNGRWFIEREHYE” displayed a protease stability score of 1.52.

On to “SEIERDVHELIKEVSELTHTGNEEHSKMLLDPNYRVEIGDKTIHGRHLVSHWIKQMRSDITVEIREVRLIDGRLLADIRFVVRIRFDGVELHIEERRVLFWLKVDGQWIIESQRVH”, for which the protease stability score was found to be 0.827.

“SEIERESKIFSKIEKHVWETGDEKILSEMADPHARIEIGDKEHHGREEFEKVAHEIVEFFPNMRFRVEHMDVQGNKVDLDTRLHFENHSHRYQVISLKFNGRWLIKSVKIE” had a protease stability score of 1.08.

Sequence “SEIERLLEEWMELVIHSWLTGNEELFTRMFDPNTRLEVEVGDKHDRHIGREEANKWMETLRREIRIEDIEIKEVRIFDGVAHNDGTLHRRVGDKKDYVRVRLILIIYNGKIHHVKIIVR” gave a protease stability score of 1.03.

“SEIETILEKVLRELEHRKETGDEESFERYADPNVRMSVDGKDIHGREEVLRSWLETWKLMGVDHSHLHVTDLRIIGNKLEIDGIVRFNVGDKIVHRHSRLIMLKINGRWMIKQVEIH”: the protease stability score amounted to 1.22.

As to “SEIHDIARKMMNIVRRLLHTGDEDKWLDLADPDVRIHINGRDFIGRELWVQIYRELGVDHLDLKIERVEIVDGVIILHGTLDIHYGDKTHEIEINIFIRKVNGRWRLKLEHHK”, the protease stability score is 1.71.

Take “SEIHDLITTMSRLFWDVIRTGDFEALEKLLDPHTRFEFLIGDKTEEYVGRHNVVRAIMDIWERLGIDHMHLKNVRYQGEKSDIDTEMHFDGRTFDTKIIIVVIDGKLHNVSIEFR”: the protease stability score turned out to be 1.39.

Sequence “SEIHELAILVLKWLLDSMSTGDEESLRRLLDPHTRIHIDGKDLHGRHFLERILQEIRHEVKEYHIRDVRDINGVVTLDAHVRGNEYFDGRNHEHRTDTRLIIDKINGRWRIRELKFE” showed a protease stability score of 1.12.

For “SEIHRDVEEFMKRFDRDLETGDEKILEKLVDPDVKTIVNGKIFHGRETFIKLMLTIFKEMRNEHVELQSLEVQGNKAHAETRVRLTIGDWTFYLRTELHLEKYDGRWRFHSVTIE”, the protease stability score stood at 1.93.

Take “SEIKEEMDEVSELWQRALETGDEHEVLKLMDPHARIDFDGVDHVGWREVTKSLKHMRIDHIKIRHITVIGNKIDIDGEVNMTVNGQERQETVHIELIVVNGRIRHIRIHLV”: the protease stability score worked out at 0.396.

With “SEIKENLHRFFERWQEVLRTGDERHIRDMADPNVRLDVNGKEIHGRELFANWIREHIERVDHISVHIHDMDIYGNKAKIRGELELDQGDKKHHLDLEIVTTKVDGKWILRSVHVR”, the protease stability score amounted to 2.12.

“SEINERTERLMKWLLHAILTGDEDLLSTLADPNVRVIVGDKSVIGMESWYRLFEEELRHLGIKHMQLDPRHVDTQGDKARVETRLRVWVDGVELTHETRLHLDVVNGRITKISIRIH”: the protease stability score turned out to be 1.16.

Take “SEIQDISDLAFELIWRSLNTGDEHMLLELLDPDARTHVNGKTFHGRESAVHLFRYLLTLMGIDHIHIEDFKIEFQGDKVIIRMTTRSHQGDKEFHTRFLIIVRKVDGRWINEEISIHVE”: the protease stability score is 0.937.

In turn, “SEIQHELSEMMKIVIHQFLTGDEEEFRHLVDPNVKFIFNGRLLIGWKSLSDFLKEHLERVDHWHVEIKRVRVYDGRLDISGRLRLVQGDKEHNLDVRMHLETIDGKITSVEIRVH” displayed a protease stability score of 1.28.

In turn, “SEIREETQRVIEEFLRNHKTGDESLFHELADPNARLHFHQGDKRLDFIGREHVLEFWSRVSKELGVDHVELKDHKLQGDKMILHIESEVNGRRMIIIDISDKIDGRWVLHTLHIHVE” displayed a protease stability score of 0.466.

“SEIWHLAENLSHLWMHKILTGDEDSIRNLLDPNARVHVNGKEVHGREETVKFMRHRVDEMGVDHMHFELKRFEVQGNYAIHHGTLIIHVDGREIRIESTIHLLKVNGRWLITDSSER” displayed a protease stability score of 0.845.

“SEKDDFLEQLQKLWHEILVTGDEHRLKKLADPDMRFIYGDFESIGREEFLQMMRDMLREIRITHIELRTFDAYDGQLIILTTQHVSIGDKRIELTVHLFWIKVDGKWKLRRLKFE” had a protease stability score of 1.79.

“SEKDDHALRVLEEYLHLFLTGNEEVMERLVDPHVRFIYGDKEFHGRELMIRWIREEREQYDHIHWEIRHFESQGDKAHSEVELRIRQGDKRIHVDMHIHIEVVNGRWKRIEVRER” showed a protease stability score of 1.78.

“SEKDELLDEILEKLRHDVETGNERLIRKNLDPHVKTDFNGRELHGMDLALRVWREHHEKVKNIRLEIKSVESVDGVVIIHMHVEIDGRHLDVILRWFVVNGRVKSVEIEIK” showed a protease stability score of 0.232.

Take “SEKDERVHELLRHVEHALRTGDWEEMVKLADPHVRVIFNGKTLHGREMMNRFWEHFGADHIRIRDEDDYNGVVIVHIETVVGDKHHHVHIISEKIDGKWTMRELSIE”: the protease stability score was determined as 0.933.

Sequence “SEKDQALTEMLEIFLQVHRTGNEEDMHRLADPNARSVYNGQDLHGWEHVFNIMRRIDHIHHVTVKRVEYFDGRVSLDGHINIEIGDKSYHIDISISLRKVDGQWHIESIEFI” came in with a protease stability score of 0.721.

The sequence “SEKDREMEHFAKILISNLVTGDEEEIFRMADPHYRYQQGDKRIHGREEWRQWLREERERVDHIEFKIHRVEQQGEKIHLDWEIQIEIGNYEIKDKTTIIFIVVDGRLKQIEVRHH” showed a protease stability score of 0.786.

The sequence “SEKEDIERKWAERTLETIETGDEHTRRELLDPHVRIIINGKDHHGREFAEEEWRRLGVDHFRTHEYEIQGNFLHVRGEMEIDGKRVEVILNFTIVDGRIKQIEMVYL” had a protease stability score of 2.03.

In turn, “SEKEEDITRFITMWARYLVTGDEDRSRELLDPSVKMHIGEKNLIGREKLLEFVHRMWRRVDHIHIHFHTIDIQGDKLKVDFEIELRQGDKSDSIRTSMIVDKVDGRWILHKITME” returned a protease stability score of 1.74.

“SEKEEDLRRAEQDFLREMETGDEHLTSELADPHVRIDIGDKVYHGREFWSKFVRRVKNATIQITHRQYQGDKLWLDGILNVDGRNIRMLVIIHKIDGVWVFKYVDIH” registered a protease stability score of 2.27.

“SEKEEELHRALRLWLHAWETGDFHTITKLLDPHARSDVNGVELHGREEISRHHRELRTHDMRIRDEKVHMQGDYLIIILHIHTDVQIGDKRIETDLLIIIIHVKVNGRWSLRSISLEFR” came in with a protease stability score of 0.035.
